Patent US8067187

Tests used:
[1] = target: T1, heat-denatured misfolded chicken ovalbumin, P01012
T1 chain: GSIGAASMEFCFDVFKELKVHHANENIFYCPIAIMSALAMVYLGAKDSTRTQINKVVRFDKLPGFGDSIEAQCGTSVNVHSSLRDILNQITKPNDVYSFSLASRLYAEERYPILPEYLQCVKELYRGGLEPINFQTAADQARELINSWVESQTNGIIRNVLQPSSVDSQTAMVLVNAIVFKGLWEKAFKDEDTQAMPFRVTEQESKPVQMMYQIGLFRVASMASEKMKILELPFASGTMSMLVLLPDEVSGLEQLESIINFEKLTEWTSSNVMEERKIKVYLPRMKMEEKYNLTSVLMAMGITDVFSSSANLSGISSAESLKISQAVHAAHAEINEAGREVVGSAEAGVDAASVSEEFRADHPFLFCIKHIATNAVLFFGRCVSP

[2] = target: T2, recombinant human β2-glycoprotein I, P02749
T2 chain: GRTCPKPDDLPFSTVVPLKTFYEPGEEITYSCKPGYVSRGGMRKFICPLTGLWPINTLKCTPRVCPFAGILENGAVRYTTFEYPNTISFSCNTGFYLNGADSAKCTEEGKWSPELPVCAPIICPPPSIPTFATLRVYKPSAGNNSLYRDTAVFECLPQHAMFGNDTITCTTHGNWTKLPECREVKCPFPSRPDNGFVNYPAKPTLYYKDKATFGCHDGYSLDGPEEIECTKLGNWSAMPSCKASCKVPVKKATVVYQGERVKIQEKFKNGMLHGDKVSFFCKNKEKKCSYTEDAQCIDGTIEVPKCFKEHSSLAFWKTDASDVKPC

[3] = target: T3, β2-glycoprotein I purified from fresh human plasma, P02749
T3 chain: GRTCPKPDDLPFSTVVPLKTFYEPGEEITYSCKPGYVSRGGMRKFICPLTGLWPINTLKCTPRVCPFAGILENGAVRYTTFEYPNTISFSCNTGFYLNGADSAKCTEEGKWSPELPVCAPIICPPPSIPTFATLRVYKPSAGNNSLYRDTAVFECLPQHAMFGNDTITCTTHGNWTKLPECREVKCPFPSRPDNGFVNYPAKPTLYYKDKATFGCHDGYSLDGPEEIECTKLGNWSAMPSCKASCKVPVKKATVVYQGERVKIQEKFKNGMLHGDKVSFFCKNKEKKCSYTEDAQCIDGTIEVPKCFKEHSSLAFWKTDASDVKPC

B1: tissue-type plasminogen activator (tPA, Actilyse, Boehringer-Ingelheim) (protein)
chain: SYQVICRDEKTQMIYQQHQSWLRPVLRSNRVEYCWCNSGRAQCHSVPVKSCSEPRCFNGGTCQQALYFSDFVCQCPEGFAGKCCEIDTRATCYEDQGISYRGTWSTAESGAECTNWNSSALAQKPYSGRRPDAIRLGLGNHNYCRNPDRDSKPWCYVFKAGKYSSEFCSTPACSEGNSDCYFGNGSAYRGTHSLTESGASCLPWNSMILIGKVYTAQNPSAQALGLGKHNYCRNPDGDAKPWCHVLKNRRLTWEYCDVPSCSTCGLRQYSQPQFRIKGGLFADIASHPWQAAIFAKHRRSPGERFLCGGILISSCWILSAAHCFQERFPPHHLTVILGRTYRVVPGEEEQKFEVEKYIVHKEFDDDTYDNDIALLQLKSDSSRCAQESSVVRTVCLPPADLQLPDWTECELSGYGKHEALSPFYSERLKEAHVRLYPSSRCTSQHLLNRTVTDNMLCAGDTRSGGPQANLHDACQGDSGGPLVCLNDGRMTLVGIISWGLGCGQKDVPGVYTKVTNYLDWIRDNMRP
tPA protease activity, chromogenic tPA substrate S-2765 [1]: At 80-fold dilution, misfolded OVA stimulated tPA protease activity when compared to PBS/DMSO buffer control
Plg-activation assay: tPA-mediated conversion of Plg to plasmin, chromogenic substrate S-2251 [2]: Recombinant β2GPI, but not β2GPI purified from fresh plasma stimulate tPA-mediated conversion of Plg to plasmin
Plg-activation assay: tPA-mediated conversion of Plg to plasmin, chromogenic substrate S-2251 [3]: Recombinant β2GPI, but not β2GPI purified from fresh plasma stimulate tPA-mediated conversion of Plg to plasmin
